The data set addresses GFP-pNLRC3-8xHis (Sus scrofa (pig), UniProt A0A287AW79 1-1066). The data set can be described thus: MST.

B1: HSV120 dsDNA (unlabelled) (dsDNA)
DNA 1: TAAGACACGATGCGATAAAATCTGTTTGTAAAATTTATTAAGGGTACAAATGCCCTAGCTAGACACGATGCGATAAAATCTGTTTGTAAAATTTATTAAGGGTACAAATTGCCCTAGC
DNA 2: GCTAGGGCAATTTGTACCCTTAATAAATTTTACAAACAGATTTTATCGCATCGTGTCTAGCTAGGGCATTTGTACCCTTAATAAATTTTACAAACAGATTTTATCGCATCGTGTCTTA
Usually Kd stands for the constant that tells how readily two partners part at equilibrium. In turn, B1 registered a Kd of 10.1 µM.
